Values belong to the binder of their own block, whether it stands above or below them.
Key:
[1] = molecular target: T1, FLAG-tagged multimerized MegaAPRIL; test: MST
T1 chain: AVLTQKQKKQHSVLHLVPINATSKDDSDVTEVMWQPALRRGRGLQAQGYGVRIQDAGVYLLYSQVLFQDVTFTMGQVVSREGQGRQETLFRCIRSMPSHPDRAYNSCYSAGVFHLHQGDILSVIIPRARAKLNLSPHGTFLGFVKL

[2] = molecular target: BAFF (as used in microscale thermophoresis) (UniProt Q9Y275 134-285); test: MST

- Kd [1]: 185 nM
- Kd [2]: 586 nM
B1: FLAG-tagged TACI-S, purified recombinant (receptor)
chain: MSGLGRSRRGGRSRVDQEERWSLSCRKEQGKFYDHLLRDCISCASICGQHPKQCAYFCENKLRSPVNLPPELRRQRSGEVENNSDNSGRYQGLEHRGSEASPALPGLKLSADQVALVYSTLGLCLCAVLCCFLVAVACFLKKRGDPCSCQPRSRPRQSPAKSSQDHAMEAGSPVSTSPEPVETCSFCFPECRAPTQESAVTPGTPDPTCAGRWGCHTRTTVLQPCPHIPDSGLGIVCVPAQEGGPGA
modifications: fluorescently labeled at the N-terminus (Monolith NT Protein Labeling Kit RED-NHS)

- Kd [1]: 567 nM
- Kd [2]: 1080 nM
B2: FLAG-TACI-L (receptor)
chain: MSGLGRSRRGGRSRVDQEERFPQGLWTGVAMRSCPEEQYWDPLLGTCMSCKTICNHQSQRTCAAFCRSLSCRKEQGKFYDHLLRDCISCASICGQHPKQCAYFCENKLRSPVNLPPELRRQRSGEVENNSDNSGRYQGLEHRGSEASPALPGLKLSADQVALVYSTLGLCLCAVLCCFLVAVACFLKKRGDPCSCQPRSRPRQSPAKSSQDHAMEAGSPVSTSPEPVETCSFCFPECRAPTQESAVTPGTPDPTCAGRWGCHTRTTVLQPCPHIPDSGLGIVCVPAQEGGPGA
modifications: for MST only: fluorescently labeled at the N-terminus (Monolith NT Protein Labeling Kit RED-NHS)

— PMC6176016 (2018)
